Test results taken from PMC5899921 (Cytoskeleton (Hoboken, N.J.), 2017).

B1: Myo2p, heavy chain of fission yeast myosin-II Myo2, in purified "Phosphorylated Myo2" (natural protein, S. pombe, UniProt Q9USI6 1-1526, looked up)
chain: MTEVISNKITAKDGATSLKDIDDKRWVWISDPETAFTKAWIKEDLPDKKYVVRYNNSRDEKIVGEDEIDPVNPAKFDRVNDMAELTYLNEPAVTYNLEQRYLSDQIYTYSGLFLVAVNPYCGLPIYTKDIIQLYKDKTQERKLPHVFAIADLAYNNLLENKENQSILVTGESGAGKTENTKRIIQYLAAIASSTTVGSSQVEEQIIKTNPVLESFGNARTVRNNNSSRFGKFIKVEFSLSGEISNAAIEWYLLEKSRVVHQNEFERNYHVFYQLLSGADTALKNKLLLTDNCNDYRYLKDSVHIIDGVDDKEEFKTLLAAFKTLGFDDKENFDLFNILSIILHMGNIDVGADRSGIARLLNPDEIDKLCHLLGVSPELFSQNLVRPRIKAGHEWVISARSQTQVISSIEALAKAIYERNFGWLVKRLNTSLNHSNAQSYFIGILDIAGFEIFEKNSFEQLCINYTNEKLQQFFNHHMFVLEQEEYMKEEIVWDFIDFGHDLQPTIDLIEKANPIGILSCLDEECVMPKATDATFTSKLDALWRNKSLKYKPFKFADQGFILTHYAADVPYSTEGWLEKNTDPLNENVAKLLAQSTNKHVATLFSDYQETETKTVRGRTKKGLFRTVAQRHKEQLNQLMNQFNSTQPHFIRCIVPNEEKKMHTFNRPLVLGQLRCNGVLEGIRITRAGFPNRLPFNDFRVRYEIMAHLPTGTYVESRRASVMILEELKIDEASYRIGVSKIFFKAGVLAELEERRVATLQRLMTMLQTRIRGFLQRKIFQKRLKDIQAIKLLQANLQVYNEFRTFPWAKLFFNLRPLLSSTQNDKQLKKRDAEIIELKYELKKQQNSKSEVERDLVETNNSLTAVENLLTTERAIALDKEEILRRTQERLANIEDSFSETKQQNENLQRESASLKQINNELESELLEKTSKVETLLSEQNELKEKLSLEEKDLLDTKGELESLRENNATVLSEKAEFNEQCKSLQETIVTKDAELDKLTKYISDYKTEIQEMRLTNQKMNEKSIQQEGSLSESLKRVKKLERENSTLISDVSILKQQKEELSVLKGVQELTINNLEEKVNYLEADVKQLPKLKKELESLNDKDQLYQLQATKNKELEAKVKECLNNIKSLTKELENKEEKCQNLSDASLKYIELQEIHENLLLKVSDLENYKKKYEGLQLDLEGLKDVDTNFQELSKKHRDLTFNHESLLRQSASYKEKLSLASSENKDLSNKVSSLTKQVNELSPKASKVPELERKITNLMHEYSQLGKTFEDEKRKALIASRDNEELRSLKSELESKRKLEVEYQKVLEEVKTTRSLRSEVTLLRNKVADHESIRSKLSEVEMKLVDTRKELNSALDSCKKREAEIHRLKEHRPSGKENNIPAVKTTEPVLKNIPQRKTIFDLQQRNANQALYENLKRDYDRLNLEKHNLEKQVNELKGAEVSPQPTGQSLQHVNLAHAIELKALKDQINSEKAKMFSVQVQYEKREQELQKRIASLEKVNKDSLIDVRALRDRIASLEDELRAA
modifications: phosphoserine at 1444 (largely phosphorylated, LC/MS/MS)
B2: mEGFP-Myo2 (Myo2 heavy chain with an N-terminal mEGFP tag) (natural protein, S. pombe, UniProt Q9USI6 1-1526, looked up)
chain: B1 chain

How the values were obtained:
electron microscopy = molecular target: the molecule itself; test: electron microscopy
[1] = molecular target: the molecule itself; test: fluorescence correlation spectroscopy with photon counting histogram analysis

Protein | stoichiometry N (electron microscopy) | stoichiometry N [1]
B1 | 2 | –
B2 | – | 2
